Measurements reported in patent publication US9322042B2, “Thermostable cellulases, and mutants thereof, capable of hydrolyzing cellulose in ionic liquid” (The Regents of the University of California, priority 2009, dated 2016).

B1: Tma Cel5A: wild-type cellulase of Thermatoga maritima strain MSB8 (Accession No. NP_229549); SEQ ID NO: 20 (protein, listed as Thermotoga maritima)
chain: MGVDPFERNKILGRGINIGNALEAPNEGDWGVVIKDEFFDIIKEAGFSHVRIPIRWSTHAYAFPPYKIMDRFFKRVDEVINGALKRGLAVVINIHHYEELMNDPEEHKERFLALWKQIADRYKDYPETLFFEILNEPHGNLTPEKWNELLEEALKVIRSIDKKHTIIIGTAEWGGISALEKLSVPKWEKNSIVTIHYYNPFEFTHQGAEWVEGSEKWLGRKWGSPDDQKHLIEEFNFIEEWSKKNKRPIYIGEFGAYRKADLESRIKWTSFVVREMEKRRWSWAYWEFCSGFGVYDTLRKTWNKDLLEALIGGDSIE
B2: Pho EG: cellulase of Pyrococcus horikoshii strain OT3 (Accession No. NP_143072); SEQ ID NO: 21 (protein, listed as Pyrococcus horikoshii)
chain: MEGNTILKIVLICTILAGLFGQVVPVYAENTTYQTPTGIYYEVRGDTIYMINVTSGEETPIHLFGVNWFGFETPNHVVHGLWKRNWEDMLLQIKSLGFNAIRLPFCTESVKPGTQPIGIDYSKNPDLRGLDSLQIMEKIIKKAGDLGIFVLLDYHRIGCTHIEPLWYTEDFSEEDFINTWIEVAKRFGKYWNVIGADLKNEPHSVTSPPAAYTDGTGATWGMGNPATDWNLAAERIGKAILKVAPHWLIFVEGTQFTNPKTDSSYKWGYNAWWGGNLMAVKDYPVNLPRNKLVYSPHVYGPDVYNQPYFGPAKGFPDNLPDIWYHHFGYVKLELGYSVVIGEFGGKYGHGGDPRDVIWQNKLVDWMIENKFCDFFYWSWNPDSGDTGGILQDDWTTIWEDKYNNLKRLMDSCSKSSSSTQSVIRSTTPTKSNTSKKICGPAILIILAVFSLLLRRAPR

Tests used:
Assay type in all cases: biochemical
[1] = Enzyme stability: overnight pre-incubation in [C2mim][OAc] and half-life; conditions: pre-incubation overnight (15 h) in 15% [C2mim][OAc]
[2] = Activity assay on insoluble substrate: corn stover
Text: (§1) Corn stover refers to stalks, leaves and cobs that remain in the fields after the corn kernel harvest and is the largest quantity of biomass residue in the United States and as such is also a LC-biomass source for producing cellulosic ethanol in the United States. [C2mim][OAc] pretreated corn stover is used as a substrate to verify enzymatic efficiency on IL-pretreated biomass and a comparison made with [C2mim][OAc] pretreated Avicel. Avicel is a commercially available microcrystalline cellulose and a good model substrate for analysis. Similar assays are done in the presence of [C2mim][OAc] to simulate real biomass processing and saccharification scenarios. The assay products for the reactions in the presence of IL are detected by high performance anion exchange chromatography (HPAEC). The enzymatic hydrolysis reaction is carried out for 8 h for the T. viride cellulase and 15 h for the hyperthermophilic enzymes, taking into account the half-lives of these enzymes. To compare the amounts of total sugars formed between different reactions, the sum of glucose, xylose and cellobiose are calculated and reported as mmoles of sugars formed per min per mg of enzyme used (Table 7). A comparison of assay results between pretreated and untreated substrate indicates a 2-6 fold increase in hydrolysis products after pretreatment irrespective of the enzyme used, thereby confirming that IL pretreatment can increase the efficiency of hydrolysis of cellulose recovered from biomass. […] The catalytic efficiency of the fungal enzyme however, decreases with increasing IL concentration in the reaction mix. After normalizing for the reaction time and enzyme amounts, the amount of sugars formed is undetectable at 15% [C2mim][OAc]. […] The yield of sugars from Tma Cel5A hydrolysis of pretreated Avicel in the presence of 15% IL decreases by 43% compared to 0% IL, while the decrease is only 10% in the case of Pho EG on the same substrate under similar conditions (Table 7).
(§2) The hydrolysis reactions are performed under pH and temperatures for each enzyme as described herein. The reactions are run over a 14 h period with 5-10 mg of enzyme with 6% (w/v) enzyme loading in optimum buffer for each enzyme and run in duplicate. The reaction products are measured on a HPLC and HPAEC. The amounts of sugars detected are shown in mmoles and normalized with regards to amount of enzyme and time of reaction. Different reactions under each enzyme were run under exactly similar conditions.
(§3) Enzymatic activity is measured on soluble polysaccharide substrates, CMC, using the 3,5-dinitrosalicylic acid (DNS) reducing sugar assay. Briefly, 2% CMC (w/v) in […] acetate buffer, (100 mM, pH 4.5 and pH 4.8 for T. viride and Tma, respectively, and 100 mM MES buffer, pH 6.4 for P. hori EG) is incubated at 80° C. for 30 min for Tma Cel5A and Pho enzymes and 37° C. and 10 min for T. viride. The solution is cooled down to 4° C. and […] of DNS solution is added. The reactants are incubated at 95° C. for 5 min and cooled down to room temperature before the absorbance is read at 540 nm. The reducing sugar concentration in the sample is calculated from its absorbance using the standard curve of D-glucose and cellobiose. For hydrolysis reactions in the presence of [C2mim][OAc], control reactions with CMC in the presence of IL but without no enzyme is subtracted from each measurement. The solid substrate (Avicel and corn stover) hydrolysis reactions are conducted at 80° C. for 15 h for the recombinant enzymes and at 37° C. for 8 h in the case of T. viride cellulose at the optimum pH for each enzyme. The reaction products are monitored using an Agilent 1200 HPLC equipped with Varian 380-LC Evaporative Light Scattering Detector. The total reaction volumes are […] and shaken at 900 rpm at temperature controlled shakers. Enzyme loadings are 0.4 mg per g of glucan and each data point is measured in triplicate. […]

[3] = Activity assay on insoluble substrate: Avicel
Text: as §1, §2, §3

[4] = Activity assay on insoluble substrate: [C2mim][OAc] pretreated corn stover; conditions: pCorn stover
Text: as §1, §2
(§4) [C2mim][OAc] (1 kg, as received, <0.2% moisture specified) is heated to 130° C. in a 1.5 L glass reaction vessel with mechanical stirring and 8% w/w (corn stover, 4.8% moisture) or 10% w/w (Avicel PH-101, 3% moisture). After around 3 h when the majority (corn stover) or all (Avicel) has dissolved, the dissolved corn stover or Avicel is allowed to cool to below 80° C. and is added to 2 L of 95% ethanol with rapid agitation to induce the precipitation of dissolved materials. The resulting slurry is filtered under pressure through polypropylene filter cloth and the solids redispersed in 2 L of additional ethanol. The filtration and redispersion steps are repeated twice to remove most residual ionic liquid and the filter cake dried under vacuum at 40° C. to yield a free-flowing powder product. Residual free ionic liquid remaining in the dried biomass is estimated to be less than 4% (w/w).
(§5) Enzymatic activity is measured on soluble polysaccharide substrates, CMC, using the 3,5-dinitrosalicylic acid (DNS) reducing sugar assay. Briefly, 2% CMC (w/v) in […] acetate buffer, (100 mM, pH 4.5 and pH 4.8 for T. viride and Tma, respectively, and 100 mM MES buffer, pH 6.4 for P. hori EG) is incubated at 80° C. for 30 min for Tma Cel5A and Pho enzymes and 37° C. and 10 min for T. viride. The solution is cooled down to 4° C. and […] of DNS solution is added. The reactants are incubated at 95° C. for 5 min and cooled down to room temperature before the absorbance is read at 540 nm. […]

[5] = Activity assay on insoluble substrate: [C2mim][OAc] pretreated Avicel; conditions: for decrease of the yield of sugars from hydrolysis of pretreated Avicel: 15% IL compared to 0% IL; for Sugars produced (sum of glucose, cellobiose and xylose): pAvicel
Text: as §1, §2, §4, §5

Molecule | activity retained after pre-incubation [1] | Sugars produced (sum of glucose, cellobiose and xylose) ([2]; 0% [C2mim][OAc]) | Sugars produced (sum of glucose, cellobiose and xylose) ([2]; 5% [C2mim][OAc]) | Sugars produced (sum of glucose, cellobiose and xylose) ([2]; 10% [C2mim][OAc]) | Sugars produced (sum of glucose, cellobiose and xylose) ([2]; 15% [C2mim][OAc]) | Sugars produced (sum of glucose, cellobiose and xylose) ([3]; 0% [C2mim][OAc]) | Sugars produced (sum of glucose, cellobiose and xylose) ([3]; 5% [C2mim][OAc]) | Sugars produced (sum of glucose, cellobiose and xylose) ([3]; 10% [C2mim][OAc]) | Sugars produced (sum of glucose, cellobiose and xylose) ([3]; 15% [C2mim][OAc]) | Sugars produced (sum of glucose, cellobiose and xylose) ([4]; 0% [C2mim][OAc]) | Sugars produced (sum of glucose, cellobiose and xylose) ([4]; 5% [C2mim][OAc]) | Sugars produced (sum of glucose, cellobiose and xylose) ([4]; 10% [C2mim][OAc]) | Sugars produced (sum of glucose, cellobiose and xylose) ([4]; 15% [C2mim][OAc]) | decrease of the yield of sugars from hydrolysis of pretreated Avicel [5] | Sugars produced (sum of glucose, cellobiose and xylose) ([5]; 0% [C2mim][OAc]) | Sugars produced (sum of glucose, cellobiose and xylose) ([5]; 5% [C2mim][OAc]) | Sugars produced (sum of glucose, cellobiose and xylose) ([5]; 10% [C2mim][OAc]) | Sugars produced (sum of glucose, cellobiose and xylose) ([5]; 15% [C2mim][OAc])
B1 | 44% | 3 ± 0.9 µmol/min/mg | 2 ± 0.3 µmol/min/mg | 2.4 ± 0.8 µmol/min/mg | 2.3 ± 0.5 µmol/min/mg | 1.1 ± 0.1 µmol/min/mg | 1.0 ± 0.2 µmol/min/mg | 0.9 ± 0.1 µmol/min/mg | 0.6 ± 0.1 µmol/min/mg | 9 ± 1 µmol/min/mg | 8 ± 0.9 µmol/min/mg | 7 ± 1 µmol/min/mg | 5.9 ± 1^ μmoles min^−1 mg^−1 | 43% | 6.6 ± 0.8 µmol/min/mg | 6 ± 0.5 µmol/min/mg | 5.7 ± 1^ μmoles min^−1 mg^−1 | 4 ± 0.5 µmol/min/mg
B2 | 70% | 0.58 ± 0.1 µmol/min/mg | 0.59 ± 0.1 µmol/min/mg | 0.57 ± 0.1 µmol/min/mg | 0.59 ± 0.1 µmol/min/mg | 0.54 ± 0.1 µmol/min/mg | 0.5 ± 0.1 µmol/min/mg | 0.52 ± 0.1 µmol/min/mg | 0.6 ± 0.08 µmol/min/mg | 2.14 ± 0.1 µmol/min/mg | 2.2 ± 0.14 µmol/min/mg | 2.0 ± 0.2 µmol/min/mg | 1.9 ± 0.1 µmol/min/mg | 10% | 3.2 ± 0.2 µmol/min/mg | 3.3 ± 0.2 µmol/min/mg | 3.1 ± 0.2 µmol/min/mg | 2.9 ± 0.06 µmol/min/mg
